Measured values from article PMC9098913, “In vitro reconstitution of Escherichia coli divisome activation” (Nature Communications, 2022).

Test: Diffusion coefficient of His-tagged FtsAs and His-SUMO on Tris-NTA membranes (FRAP)
Description: To study colocalization of His-tagged variants of FtsA, 0.5–1 µM of Cy5 labelled His-tagged FtsAs were added to the chamber, incubated for 20 min and washed 6x with reaction buffer. […] To control the density of membrane-bound FtsA, SUVs without and with Tris-NTA lipids were mixed to obtain the respective Tris-NTA concentrations. To perform FRET/FRAP experiments, equimolar concentrations of Cy3 and Cy5 labelled His-tagged FtsAs (total 0.5–1 µM) or His-SUMO-Cys were added to a chamber and treated as above. […] FRAP experiments were performed as described before.
Bleaching the acceptor dye leads to an increase in the donor intensity, which can be used to quantify the Foerster Resonance energy transfer (FRET)[48]. FRET efficiency was quantified with E%=Ipost/Ipost+Ipre⋅100 , where Ipost is the intensity of the […] and Ipre is the […]. […] To extract the contribution of both processes, we adjusted a routine recently published by Gerganova et al.[33]. In short, the code provides the contribution of both modes of recovery by analysing the shape of the fluorescence recovery profile. […] Contribution of diffusion leads to a change of the slope of the outer borders of the bleached region (S4h right). Thus, by measuring the change of the slope of the border recovery, diffusion and simple on/off binding can be distinguished. We developed “FRAPdiff”, a graphical user interface, which uses the original fit routine by David Rutkowski. It can be used directly on.tiff movies with annotated bleach regions as ImageJ ROIs. In addition, we added optional bleach correction, user selectable projection axis (x or y), and optional mirroring of the recovery profiles, if bleaching was not symmetric. The original fit routine for estimating the recovery and diffusion dynamics can be found at https://github.com/davidmrutkowski/1DReflectingDiffusion. FRAPdiff is available at 10.5281/zenodo.6400639[49] under the GPLv3 open-source license.

B1: FtsA R286W-His6: FtsA R286W (1-405) with amphipathic helix replaced by C-terminal His-tag (protein)
chain: MIKATDRKLVVGLEIGTAKVAALVGEVLPDGMVNIIGVGSCPSRGMDKGGVNDLESVVKCVQRAIDQAELMADCQISSVYLALSGKHISCQNEIGMVPISEEEVTQEDVENVVHTAKSVRVRDEHRVLHVIPQEYAIDYQEGIKNPVGLSGVRMQAKVHLITCHNDMAKNIVKAVERCGLKVDQLIFAGLASSYSVLTEDERELGVCVVDIGGGTMDIAVYTGGALRHTKVIPYAGNVVTSDIAYAFGTPPSDAEAIKVRHGCALGSIVGKDESVEVPSVGGRPPWSLQRQTLAEVIEPRYTELLNLVNEEILQLQEKLRQQGVKHHLAAGIVLTGGAAQIEGLAACAQRVFHTQVRIGAPLNITGLTDYAQEPYYSTAVGLLHYGKESHLNGEAEVEKRVTASV
modifications: Cy3 or Cy5 at the N-terminus in the labelled form (sortagging as for native FtsA); left off: TwinStrep-SUMO, N-terminal, cleaved | 5xGlycine tag, N-terminal, kept | His6, C-terminal, kept
Diffusion Coefficient (0.1% Tris NTA, + FtsZ, mean (n: WT 2, R286W 3)): 0.17 µm2/s | Diffusion Coefficient (0.1% Tris NTA, + FtsZ, replicate Exp1): 0.12 µm2/s | Diffusion Coefficient (0.1% Tris NTA, + FtsZ, replicate Exp2): 0.17 µm2/s | Diffusion Coefficient (0.1% Tris NTA, + FtsZ, replicate Exp3): 0.22 µm2/s | Diffusion Coefficient (0.1% Tris NTA, without FtsZ, mean (n: WT 2, R286W 3, SUMO 2)): 0.50 µm2/s | Diffusion Coefficient (0.1% Tris NTA, without FtsZ, replicate Exp1): 0.48 µm2/s | Diffusion Coefficient (0.1% Tris NTA, without FtsZ, replicate Exp2): 0.53 µm2/s | Diffusion Coefficient (0.1% Tris NTA, without FtsZ, replicate Exp3): 0.50 µm2/s | Diffusion Coefficient (0.4% Tris NTA, + FtsZ, mean (n: WT 2, R286W 3)): 0.08 µm2/s | Diffusion Coefficient (0.4% Tris NTA, + FtsZ, replicate Exp1): 0.12 µm2/s | Diffusion Coefficient (0.4% Tris NTA, + FtsZ, replicate Exp2): 0.11 µm2/s | Diffusion Coefficient (0.4% Tris NTA, + FtsZ, replicate Exp3): 0.0041 µm2/s | Diffusion Coefficient (0.4% Tris NTA, without FtsZ, mean (n: WT 2, R286W 3, SUMO 3)): 0.44 µm2/s | Diffusion Coefficient (0.4% Tris NTA, without FtsZ, replicate Exp1): 0.31 µm2/s | Diffusion Coefficient (0.4% Tris NTA, without FtsZ, replicate Exp2): 0.56 µm2/s | Diffusion Coefficient (0.4% Tris NTA, without FtsZ, replicate Exp3): 0.45 µm2/s | Diffusion Coefficient (0.6% Tris NTA, + FtsZ, mean (n: WT 5, R286W 5)): 0.0744 µm2/s | Diffusion Coefficient (0.6% Tris NTA, + FtsZ, replicate Exp1): 0.12 µm2/s | Diffusion Coefficient (0.6% Tris NTA, + FtsZ, replicate Exp2): 2.02e-8 µm2/s | Diffusion Coefficient (0.6% Tris NTA, + FtsZ, replicate Exp3): 9.38e-5 µm2/s | Diffusion Coefficient (0.6% Tris NTA, + FtsZ, replicate Exp4): 0.15 µm2/s | Diffusion Coefficient (0.6% Tris NTA, + FtsZ, replicate Exp5): 0.11 µm2/s | Diffusion Coefficient (0.6% Tris NTA, without FtsZ, mean (n: WT 4, R286W 5, SUMO 4)): 0.33 µm2/s | Diffusion Coefficient (0.6% Tris NTA, without FtsZ, replicate Exp1): 0.43 µm2/s | Diffusion Coefficient (0.6% Tris NTA, without FtsZ, replicate Exp2): 0.38 µm2/s | Diffusion Coefficient (0.6% Tris NTA, without FtsZ, replicate Exp3): 0.25 µm2/s | Diffusion Coefficient (0.6% Tris NTA, without FtsZ, replicate Exp4): 0.30 µm2/s | Diffusion Coefficient (0.6% Tris NTA, without FtsZ, replicate Exp5): 0.28 µm2/s | Diffusion Coefficient (0.8% Tris NTA, + FtsZ, mean): 0.04 µm2/s | Diffusion Coefficient (0.8% Tris NTA, + FtsZ, replicate Exp1): 0.07 µm2/s | Diffusion Coefficient (0.8% Tris NTA, + FtsZ, replicate Exp2): 0.02 µm2/s | Diffusion Coefficient (0.8% Tris NTA, + FtsZ, replicate Exp3): 0.0271 µm2/s | Diffusion Coefficient (0.8% Tris NTA, + FtsZ, replicate Exp4): 0.0336 µm2/s | Diffusion Coefficient (0.8% Tris NTA, + FtsZ, replicate Exp5): 0.0229 µm2/s | Diffusion Coefficient (0.8% Tris NTA, + FtsZ, replicate Exp6): 0.06 µm2/s | Diffusion Coefficient (0.8% Tris NTA, without FtsZ, mean): 0.22 µm2/s | Diffusion Coefficient (0.8% Tris NTA, without FtsZ, replicate Exp1): 0.17 µm2/s | Diffusion Coefficient (0.8% Tris NTA, without FtsZ, replicate Exp2): 0.22 µm2/s | Diffusion Coefficient (0.8% Tris NTA, without FtsZ, replicate Exp3): 0.26 µm2/s | Diffusion Coefficient (0.8% Tris NTA, without FtsZ, replicate Exp4): 0.17 µm2/s | Diffusion Coefficient (0.8% Tris NTA, without FtsZ, replicate Exp5): 0.30 µm2/s | Diffusion Coefficient (0.8% Tris NTA, without FtsZ, replicate Exp6): 0.20 µm2/s | Diffusion Coefficient (1% Tris NTA, + FtsZ, mean): 0.04 µm2/s | Diffusion Coefficient (1% Tris NTA, + FtsZ, replicate Exp1): 0.0437 µm2/s | Diffusion Coefficient (1% Tris NTA, + FtsZ, replicate Exp2): 0.0187 µm2/s | Diffusion Coefficient (1% Tris NTA, + FtsZ, replicate Exp3): 0.046 µm2/s | Diffusion Coefficient (1% Tris NTA, + FtsZ, replicate Exp4): 0.0142 µm2/s | Diffusion Coefficient (1% Tris NTA, + FtsZ, replicate Exp5): 0.03 µm2/s | Diffusion Coefficient (1% Tris NTA, + FtsZ, replicate Exp6): 0.09 µm2/s | Diffusion Coefficient (1% Tris NTA, without FtsZ, mean): 0.22 µm2/s | Diffusion Coefficient (1% Tris NTA, without FtsZ, replicate Exp1): 0.32 µm2/s | Diffusion Coefficient (1% Tris NTA, without FtsZ, replicate Exp2): 0.13 µm2/s | Diffusion Coefficient (1% Tris NTA, without FtsZ, replicate Exp3): 0.42 µm2/s | Diffusion Coefficient (1% Tris NTA, without FtsZ, replicate Exp4): 0.24 µm2/s | Diffusion Coefficient (1% Tris NTA, without FtsZ, replicate Exp5): 0.09 µm2/s | Diffusion Coefficient (1% Tris NTA, without FtsZ, replicate Exp6): 0.14 µm2/s | Diffusion Coefficient (Tris 0.10 %, + FtsZ): 0.17 µm2/s | Diffusion Coefficient (Tris 0.10 %, without FtsZ): 0.50 µm2/s | Diffusion Coefficient (Tris 0.40 %, + FtsZ): 0.08 µm2/s | Diffusion Coefficient (Tris 0.40 %, without FtsZ): 0.44 µm2/s | Diffusion Coefficient (Tris 0.60 %, + FtsZ): 0.0744 µm2/s | Diffusion Coefficient (Tris 0.60 %, without FtsZ): 0.33 µm2/s | Diffusion Coefficient (Tris 0.80 %, + FtsZ): 0.04 µm2/s | Diffusion Coefficient (Tris 0.80 %, without FtsZ): 0.22 µm2/s | Diffusion Coefficient (Tris 1.00 %, + FtsZ): 0.04 µm2/s | Diffusion Coefficient (Tris 1.00 %, without FtsZ): 0.22 µm2/s | Diffusion Coefficient (Tris 2.00 %, + FtsZ): 0.02 µm2/s | Diffusion Coefficient (Tris 2.00 %, without FtsZ): 0.035 µm2/s | Diffusion Coefficient ([…] Tris NTA, + FtsZ, mean (n: WT 2, R286W 3)): 0.14 µm2/s | Diffusion Coefficient ([…] Tris NTA, + FtsZ, replicate Exp1): 0.34 µm2/s | Diffusion Coefficient ([…] Tris NTA, + FtsZ, replicate Exp2): 0.000447 µm2/s | Diffusion Coefficient ([…] Tris NTA, + FtsZ, replicate Exp3): 0.07 µm2/s | Diffusion Coefficient ([…] Tris NTA, without FtsZ, mean (n: WT 2, R286W 3, SUMO 3)): 0.42 µm2/s | Diffusion Coefficient ([…] Tris NTA, without FtsZ, replicate Exp1): 0.55 µm2/s | Diffusion Coefficient ([…] Tris NTA, without FtsZ, replicate Exp2): 0.25 µm2/s | Diffusion Coefficient ([…] Tris NTA, without FtsZ, replicate Exp3): 0.47 µm2/s | Diffusion Coefficient ([…] Tris-NTA, + N (FtsNcyto), mean): 4.17E-05 µm2/s | Diffusion Coefficient ([…] Tris-NTA, + N/Z, Exp. 1): 2.50E-03 µm2/s | Diffusion Coefficient ([…] Tris-NTA, + N/Z, Exp. 2): 2.00E-05 µm2/s | Diffusion Coefficient ([…] Tris-NTA, + N/Z, Exp. 3): 1.00E-05 µm2/s | Diffusion Coefficient ([…] Tris-NTA, + N/Z, mean): 8.43E-04 µm2/s | Diffusion Coefficient ([…] Tris-NTA, + N, Exp. 1): 7.50E-05 µm2/s | Diffusion Coefficient ([…] Tris-NTA, + N, Exp. 2): 3.00E-05 µm2/s | Diffusion Coefficient ([…] Tris-NTA, + N, Exp. 3): 2.00E-05 µm2/s | Diffusion Coefficient ([…] Tris-NTA, + Z (FtsZ), mean): 0.05 µm2/s | Diffusion Coefficient ([…] Tris-NTA, + Z, Exp. 1): 0.0229 µm2/s | Diffusion Coefficient ([…] Tris-NTA, + Z, Exp. 2): 0.04 µm2/s | Diffusion Coefficient ([…] Tris-NTA, + Z, Exp. 3): 0.08 µm2/s | Diffusion Coefficient ([…] Tris-NTA, alone, Exp. 1): 0.14 µm2/s | Diffusion Coefficient ([…] Tris-NTA, alone, Exp. 2): 0.0561 µm2/s | Diffusion Coefficient ([…] Tris-NTA, alone, Exp. 3): 0.26 µm2/s | Diffusion Coefficient ([…] Tris-NTA, alone, mean): 0.15 µm2/s | Diffusion Coefficient (with FtsNcyto, mean ± s.d., p-value 0.01): 8.43 × 10^−4 ± 1.17 × 10^−3 µm^2/s | Diffusion Coefficient (without FtsNcyto, mean ± s.d., p-value 0.01): 0.05 ± 0.04 µm^2/s
